{
  "source": "patent US20180037632A1",
  "about": "(BIONTECH, published 2018)",
  "binders": {"B1": {"name": "MC-FA-010 (designed binder)", "chain": "GKCPYSNWTPGRGPDCRRDSDCPGRCICRGNGYCG", "modifications": "disulfide (positions not given here)", "notes": "also called soluble monovalent MC-FA-010; solitary MC-FA-010 miniprotein"}, "B2": {"name": "DOTA-(MC-FA-012)3 (designed binder)", "chain 1": "B1 chain with K2A", "chain 2": "B1 chain with K2A", "chain 3": "B1 chain with K2A", "modifications": "each of chains 1-3: N-terminal aminooxy group oxime-ligated to an oxidised serine of the anchor; three disulfides (cystine knot) per chain; anchor carries an N-terminal DOTA chelator", "notes": "Purchased from Pepscan; about 13000 Da; also called DOTA conjugated trimerized MC-FA-012; MC-FA-012 trimer; not shown: the anchor scaffold (N-terminal DOTA, three Lys-Ser units separated by GSGS linkers)"}, "B3": {"name": "Trx-MC-FA-019 (designed binder)", "chain": "B1 chain with P10A", "modifications": "disulfide 16-28, 22-34, 3-26; also: N-terminal Trx-His6-S-tag fusion carrier, not in chain", "notes": "the position follows from the order of the rows; also called alanine scan variant P10A of MC-FA-010, Trx fusion; not shown: thioredoxin-A, His6 tag, S-tag and linkers of the pET-32-LibEx fusion (N-terminal carrier)"}, "B4": {"name": "Trx-MC-FA-0112 (designed binder)", "chain": "B1 chain with G13A", "modifications": "disulfide 16-28, 22-34, 3-26; also: N-terminal Trx-His6-S-tag fusion carrier, not in chain", "notes": "the position follows from the order of the rows; also called alanine scan variant G13A of MC-FA-010, Trx fusion; not shown: Thioredoxin-A, His-tag (H6), S-tag and linker of the pET-32-LibEx fusion, N-terminal of the miniprotein"}, "B5": {"name": "Trx-MC-FA-018 (designed binder)", "chain": "B1 chain with T9A", "modifications": "disulfide 16-28, 22-34, 3-26; also: N-terminal Trx-His6-S-tag fusion carrier, not in chain", "notes": "the position follows from the order of the rows; also called alanine scan variant T9A of MC-FA-010, Trx fusion; not shown: thioredoxin-A, His6 tag, S-tag and linkers of the pET-32-LibEx fusion (N-terminal carrier)"}},
  "key": {"[1]": {"molecular_target": "T1, recombinant soluble human Seprase (rhuSeprase) (human, UniProt Q12884 29-760)", "T1 construct": "range 29-760; Secreted from CHO-S cells with a mouse Ig kappa secretion signal (not part of the protein in the assay); also called recombinant human Seprase; soluble fraction of human Seprase", "T1 sequence": "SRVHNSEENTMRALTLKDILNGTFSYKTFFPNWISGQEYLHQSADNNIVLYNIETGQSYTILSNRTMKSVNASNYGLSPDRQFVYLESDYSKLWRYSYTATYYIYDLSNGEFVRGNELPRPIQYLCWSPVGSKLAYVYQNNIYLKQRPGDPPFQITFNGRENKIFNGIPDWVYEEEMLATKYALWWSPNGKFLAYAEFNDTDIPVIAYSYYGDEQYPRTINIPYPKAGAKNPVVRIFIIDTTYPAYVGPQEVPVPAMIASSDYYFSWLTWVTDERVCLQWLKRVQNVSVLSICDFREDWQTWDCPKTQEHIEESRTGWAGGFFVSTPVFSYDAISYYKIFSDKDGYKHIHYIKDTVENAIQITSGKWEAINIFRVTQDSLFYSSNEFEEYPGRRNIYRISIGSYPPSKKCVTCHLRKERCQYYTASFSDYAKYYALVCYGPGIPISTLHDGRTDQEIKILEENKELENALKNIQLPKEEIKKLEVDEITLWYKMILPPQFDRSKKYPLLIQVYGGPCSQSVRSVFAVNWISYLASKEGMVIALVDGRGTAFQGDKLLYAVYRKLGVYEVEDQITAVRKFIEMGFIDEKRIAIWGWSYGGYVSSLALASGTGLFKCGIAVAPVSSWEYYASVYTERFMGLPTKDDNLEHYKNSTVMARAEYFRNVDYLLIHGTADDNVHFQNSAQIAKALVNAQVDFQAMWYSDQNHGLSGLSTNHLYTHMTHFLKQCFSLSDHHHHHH", "test": "SPR (Biacore T-100), rhuSeprase immobilized on CM5, multi cycle kinetics, 1:1 fit", "experimental": "(§1) RhuSeprase (20 μg/ml in PBS, 5% mannitol, 5% trehalose) was immobilized on an amino reactive Series S Sensor Chip CM5 (GE Healthcare). For binding analysis of monomeric Microbodies rhuSeprase was loaded to a maximum of 7500 RU, for oligomeric Microbodies to a maximum of 700 RU. Monomeric Microbodies were measured using a multi cycle kinetic method in a concentration range of 3.125 to 1000 nM based on expected dissociation constant. Association step was measured over a time period of 60-90 seconds, dissociation over 420 seconds. Trimeric Mircobodies were measured using a single cycle kinetics method in a concentration range of 0.3125 to 5 nM (association for 90 seconds, dissociation 420 seconds). Binding kinetics and steady state analysis were calculated using a 1:1 binding model (Biacore T-100 Evaluation Software, GE Healthcare).\n(§2) The binding kinetics of monomeric and trimeric Seprase-binding Microbodies was determined using surface plasmon resonance spectroscopy on a Biacore T-100 system."}, "[2]": {"molecular_target": "T1, recombinant soluble human Seprase …", "test": "SPR (Biacore T-100), rhuSeprase immobilized on CM5, steady state analysis, 1:1 fit", "experimental": "as §1, §2"}, "[3]": {"molecular_target": "T1, recombinant soluble human Seprase …", "test": "SPR (Biacore T100), recombinant human Seprase immobilized, 37-3000 nM MC-FA-010; Seprase on the chip; monovalent MC-FA-010, 37-3000 nM, Biacore T100", "experimental": "(§3) To obtain insights of the kinetic binding properties surface plasmon resonance (SPR) analysis was performed on a Biacore T100 device (GE Healthcare). Therefore, rhuSeprase was immobilized onto a CM5 chip via NHS/EDC mediated coupling as described by manufacturer at 10 μl/min for 420 sec. […] Kd values were calculated using the provided software.\n(§4) As a next step a more detailed analysis of binding kinetic was performed using surface plasmon resonance technology (SPR). Therefore, recombinant human Seprase was immobilized on a CMS chip (GE Healthcare) with an amino reactive surface. […] Association and dissociation data was fitted and corresponding dissociation constant and kinetic values (Kon, Koff and Kd) was calculated using the provided software of the system (FIGS. 4A and B)."}, "[4]": {"molecular_target": "T1, recombinant soluble human Seprase …", "test": "competition ELISA on coated rhuSeprase: free MC-FA-010 (0.64 to 3167 nM) against 3 nM Trx-MC-FA-010, detected with anti-S-Tag-HRP, OD 450 nm", "experimental": "(§5) For protein based ELISA analysis 5 μg of the respective recombinant protein (rhuSeprase; streptavidin: Sigma; DPP-IV: R&D Systems, BSA: Eurobio) were immobilized per well of a MaxiSorp™ plate (Nunc) by overnight incubation in coating buffer at 4° C. After washing thrice with 300 μl PBS-T/well on a Hydrospeed plate washer (Tecan) the wells were blocked with 1×Casein solution (Sigma, diluted in PBS) for 2 h at RT. Subsequently, the wells were washed as indicated above. 100 μl of the respective Trx-miniprotein fusion diluted in PBS-T was then added and incubated for 1 h at 4° C. […] For competition ELISAs a fixed concentration of 3 nM Trx-miniprotein fusion was mixed with varying concentration (0.64-3167 nM) of solitary miniprotein before incubation. Binding of the Trx-fusion was detected after a PBS-T washing procedure using HRP coupled anti S-tag antibody as described above. Apparent Kd was calculated using Sigmaplot 10 and an one site saturation binding model for fitting of the data.\nDetection of bound miniprotein was achieved via anti S-Tag-HRP conjugated antibody (S-tag is provided by thioredoxin fusion expression system, FIG. 3A). EC₅₀ values were calculated using the one-site-saturation binding model in Sigma plot 10."}, "[5]": {"molecular_target": "T1, recombinant soluble human Seprase …", "test": "SPR (Biacore T100), rhuSeprase immobilised, MC-FA-010 at 37, 111,11, 333,33, 1000 and 3000 nM, global fit; Rmax 316,6 RU; Chi² 9,42 RU²; U-value 1", "experimental": "as §3, §4"}, "[6]": {"molecular_target": "T1, recombinant soluble human Seprase …", "test": "SPR (Biacore T-100)", "experimental": "as §1, §2"}, "[7]": {"molecular_target": "T1, recombinant soluble human Seprase …", "test": "SPR (Biacore T-100), rhuSeprase immobilized on CM5, single cycle kinetics, 1:1 fit", "experimental": "as §1, §2"}, "[8]": {"molecular_target": "T2, human Seprase, full length, on cells (human, UniProt Q12884 1-760)", "T2 construct": "whole, on cells; also called CHO-K1-Seprase; CHO-K1-huSeprase", "T2 sequence (looked up)": "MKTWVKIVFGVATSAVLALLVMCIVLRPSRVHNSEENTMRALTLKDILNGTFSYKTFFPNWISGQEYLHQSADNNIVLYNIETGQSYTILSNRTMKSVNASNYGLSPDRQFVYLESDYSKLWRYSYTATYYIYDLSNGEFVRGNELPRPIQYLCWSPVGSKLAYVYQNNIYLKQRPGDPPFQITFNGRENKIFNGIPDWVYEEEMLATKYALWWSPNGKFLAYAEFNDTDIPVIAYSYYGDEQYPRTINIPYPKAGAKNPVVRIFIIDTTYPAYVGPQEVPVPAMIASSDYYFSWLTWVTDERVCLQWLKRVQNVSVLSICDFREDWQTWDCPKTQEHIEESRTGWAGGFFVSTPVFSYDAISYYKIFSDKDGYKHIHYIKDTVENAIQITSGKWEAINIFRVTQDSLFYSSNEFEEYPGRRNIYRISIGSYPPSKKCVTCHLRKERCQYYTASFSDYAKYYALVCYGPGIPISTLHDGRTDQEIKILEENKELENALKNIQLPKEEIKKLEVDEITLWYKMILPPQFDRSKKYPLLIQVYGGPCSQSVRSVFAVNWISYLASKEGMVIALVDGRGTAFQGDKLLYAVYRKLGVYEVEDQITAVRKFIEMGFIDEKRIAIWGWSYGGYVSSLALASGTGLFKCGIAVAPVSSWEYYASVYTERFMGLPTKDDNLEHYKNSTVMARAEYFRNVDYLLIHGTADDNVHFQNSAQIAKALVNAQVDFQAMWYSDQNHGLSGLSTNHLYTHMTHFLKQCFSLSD", "test": "FACS-based competition on CHO-K1-huSeprase cells, competitor Trx-MC-FA-012 detected with anti-H6-PE"}, "[9]": {"molecular_target": "T1, recombinant soluble human Seprase …", "test": "direct ELISA on coated rhuSeprase; binding relative to the parental Trx-MC-FA-010", "experimental": "as §5"}, "[10]": {"molecular_target": "T1, recombinant soluble human Seprase …", "test": "direct ELISA on coated rhuSeprase, Trx fusion detected with anti-S-tag-HRP; apparent KD from one site saturation fit; Error 7,6; R2 0,9962", "experimental": "as §5"}, "[11]": {"molecular_target": "T1, recombinant soluble human Seprase …", "test": "direct ELISA on coated rhuSeprase, Trx fusion detected with anti-S-tag-HRP; apparent KD from one site saturation fit; Error 64,43; R2 0,9863", "experimental": "as §5"}, "[12]": {"molecular_target": "T1, recombinant soluble human Seprase …", "test": "direct ELISA on coated rhuSeprase, Trx fusion detected with anti-S-tag-HRP; apparent KD from one site saturation fit; Error 3,63; R2 0,9974", "experimental": "as §5"}},
  "note": "Where a chain is given by its changes, count along the chain named. Numbers in names are those of the source. Positions of bridges follow the written chain, without caps; N, C: chain ends. No end group written: not given here.",
  "data": [
    {"binder": "B1", "values": [
      {"measurement": "Kd", "setting": "[1]", "value": 149, "unit": "nM"},
      {"measurement": "koff", "setting": "[1]", "value": 0.201, "unit": "s⁻¹"},
      {"measurement": "kon", "setting": "[1]", "value": "1.53e+06", "unit": "M⁻¹ s⁻¹"},
      {"measurement": "Kd", "setting": "[2]", "value": 106, "unit": "nM"},
      {"measurement": "Kd", "setting": "[3]", "value": "~560", "unit": "nM"},
      {"measurement": "IC50", "setting": "[4]", "value": "~20", "unit": "nM"},
      {"measurement": "Kd", "setting": "[5]", "value": 562, "unit": "nM"},
      {"measurement": "koff", "setting": "[5]", "value": 0.151, "unit": "s⁻¹"},
      {"measurement": "kon", "setting": "[5]", "value": 268000, "unit": "M⁻¹ s⁻¹"}
    ]},
    {"binder": "B2", "values": [
      {"measurement": "times slower offrate compared to MC-FA-012", "setting": "[6]", "value": "~530", "unit": "fold"},
      {"measurement": "Kd", "setting": "[7]", "value": 0.0124, "unit": "nM"},
      {"measurement": "kon", "setting": "[7]", "value": "2.11e+07", "unit": "M⁻¹ s⁻¹"},
      {"measurement": "Kd", "setting": "[2]", "value": 0.249, "unit": "nM"},
      {"measurement": "IC50", "setting": "[8]", "value": 43.3, "unit": "nM"}
    ]},
    {"binder": "B3", "values": [
      {"measurement": "Relative Bindung im Vergleich zu Trx-MC-FA-010 [%]", "setting": "[9]", "value": 19.3, "unit": "%"},
      {"measurement": "Kd", "setting": "[10]", "value": 78.7, "unit": "nM"}
    ]},
    {"binder": "B4", "values": [
      {"measurement": "Relative Bindung im Vergleich zu Trx-MC-FA-010 [%]", "setting": "[9]", "value": 6.98, "unit": "%"},
      {"measurement": "Kd", "setting": "[11]", "value": 217, "unit": "nM"}
    ]},
    {"binder": "B5", "values": [
      {"measurement": "Relative Bindung im Vergleich zu Trx-MC-FA-010 [%]", "setting": "[9]", "value": 29.9, "unit": "%"},
      {"measurement": "Kd", "setting": "[12]", "value": 50.6, "unit": "nM"}
    ]}
  ]
}
